According to patent US10808017B2, “Ubiquitin variants and uses therof as 53BP1 inhibitors” (The Governing Council of the University of Toronto, priority 2016, dated 2020):

Columns and labels:
RPL10 = biological target: T1, RPL10 (Homo sapiens, UniProt P27635); assay: Flag IP-MS of i53/i53-DM baits: prey RPL10; format: binding; details: 293T Flp-In/T-Rex extracts, LC-MS/MS, one column per replicate IP
T1 construct: endogenous in cells; host or cells: HEK293 Flp-In/T-REx
Experimental: (§1) Following immunoprecipitation of Flag-tagged i53 and i-53-DM from HEK293 Flp-In/T-REx cells, peptides were identified using LC-MS/MS. Proteins were digested in solution with trypsin (Sigma, T7575-1KT) and dried to completeness. For LC-MS/MS analysis, peptides were reconstituted in 5% formic acid and loaded onto a 12-15 cm fused silica column with pulled tip packed in-house with 3.5 μm Zorbax C18 (Agilent Technologies, Calif., USA).
(§2) i53 and i53-DM precipitates were analyzed using an LTQ (Thermo Scientific) coupled to an Agilent 1100 Series HPLC (Agilent Technologies). Peptides were eluted from the column using a 90 min period cycle with a linear gradient from 0% to 40% ACN in 0.1% formic acid. Tandem MS spectra were acquired in a data-dependent mode for the top 5 (LTQ) most abundant ions using collision-induced dissociation. Acquired spectra were searched against the human Refseq_V53 database using Mascot (Matrix Science).
(§3) 293T Flp-In/T-Rex cell lines were generated that expressed Flag-tagged i53 or i53-DM under the control of a tetracycline-inducible promoter as previously described. Nine IP-MS experiments were analyzed (3 biological replicate IPs each for control i53- and i53-DM expressing cell lines). The interacting proteins were identified by MASCOT to identify high-confidence interactors for i53. […]

RPS29 = biological target: T2, RPS29 (Homo sapiens, UniProt P62273); assay: Flag IP-MS of i53/i53-DM baits: prey RPS29; format: binding; details: 293T Flp-In/T-Rex extracts, LC-MS/MS, one column per replicate IP
T2 construct: Following immunoprecipitation of Flag-tagged i53 and i-53-DM from HEK293 Flp-In/T-REx cells, peptides were identified using LC-MS/MS; endogenous in cells; host or cells: HEK293 Flp-In/T-REx cells
Experimental: as §1, §2, §3

[1] = tested on: γ-H2AX focus formation in U2OS cells; assay: Ionizing radiation focus formation, γ-H2AX (immunofluorescence); format: cell-based; details: transfected U2OS cells, 10 Gy, 1 h post-irradiation
Experimental: FIG. 3. The i53 protein inhibits 53BP1. FIG. 3A-B, U2OS cells were transfected with vectors expressing i53, its 53BP1-binding deficient mutant (DM) or an empty vector (EV) control. Cells were then X-irradiated with a 10 Gy dose and processed for immunofluorescence with the indicated antibodies 1 h post-irradiation (IR). DAPI staining (not shown) was used to delineate the outline (dashed lines) of the cell nuclei. The region in the magnified inset is indicated with a square. Quantitation of the experiment is shown in panel (a) and data is indicated as the mean±s.e.m (N=3), whereas in (b) representative micrographs are shown. Arrowheads indicate Flag-positive cells. FIG. 3C, Parental or 53BP1ΔU2OS cells transfected with vectors expressing i53, the DM mutant or an empty vector (EV) control were irradiated (10 Gy) 1 h before being processed for immunofluorescence. Cell cycle stage was assessed by Cyclin A staining. The data is presented as the mean±s.e.m.; N=3. FIG. 3D, Immunoprecipitation (IP) of Flag-tagged proteins from extracts prepared from 293T cells transfected with vectors expressing Flag-i53 or the i53-DM mutant. Proteins were separated by SDS-PAGE and immunoblotted (IB) for Flag and 53BP1. […]

GSPT1 = biological target: T3, GSPT1 (Homo sapiens, UniProt P15170); assay: Flag IP-MS of i53/i53-DM baits: prey GSPT1; format: binding; details: 293T Flp-In/T-Rex extracts, LC-MS/MS, one column per replicate IP
T3 construct: endogenous in cells; host or cells: HEK293 Flp-In/T-REx
Experimental: as §1, §2, §3

T3 sequence (P15170 whole entry): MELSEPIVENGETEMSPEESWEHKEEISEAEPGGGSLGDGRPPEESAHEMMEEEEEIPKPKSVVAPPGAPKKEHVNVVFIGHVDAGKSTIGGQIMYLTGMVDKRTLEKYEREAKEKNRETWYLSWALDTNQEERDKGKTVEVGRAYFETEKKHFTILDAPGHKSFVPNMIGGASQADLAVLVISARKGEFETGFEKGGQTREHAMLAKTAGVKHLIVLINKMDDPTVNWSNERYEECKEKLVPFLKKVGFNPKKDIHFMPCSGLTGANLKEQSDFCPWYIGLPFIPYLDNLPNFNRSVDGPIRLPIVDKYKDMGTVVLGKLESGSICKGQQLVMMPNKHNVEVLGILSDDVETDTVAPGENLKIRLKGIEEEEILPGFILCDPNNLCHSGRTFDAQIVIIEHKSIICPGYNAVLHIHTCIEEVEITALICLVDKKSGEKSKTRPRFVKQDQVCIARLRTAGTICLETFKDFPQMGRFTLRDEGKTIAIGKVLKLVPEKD

Substance | Total peptides, RPL10 (RPL10) | Total peptides, RPS29 (RPS29) | γ-H2AX focus formation [1] | Total peptides, GSPT1 (GSPT1)
i53-DM: 53BP1-binding deficient mutant of i53 (P69L, L70V) | 11 | 3 | – | –
i53: UbvG08 with C-terminal di-glycine removed and I44A mutation; genetically encoded inhibitor of 53BP1 | – | – | did not impact | 3
